Blank lines part the entries; values can stand above or below the binder they belong to.
Tests used:
[1] = target: T1, PSB‐I^143–238 construct (peptide‐substrate–binding domain of the α‐I subunit of human collagen prolyl … (human, UniProt P13674 160-255)); experiment: ITC; 3 mM peptide titrated into 50 μM PSB‐I^143–238 in the cell; 20 mM Bis‐Tris, 100 mM glycine, pH 6.8; 25°C; one‐set‐of‐sites model with fixed stoichiometry (n = 1); three measurements; settings: both partners purified
T1 construct: numbers count on: the mature protein (α-I subunit after cleavage of the signal peptide); Monomer by SEC-MALS; also called PSB‐I construct; PSB‐I domain; source: E. coli Rosetta(DE3)pLysS, pET22b(+), purified (Ni‐NTA, Superdex75 SEC); not shown: Leu-Glu-His6, C-terminal, kept
T1 sequence (P13674 160-255): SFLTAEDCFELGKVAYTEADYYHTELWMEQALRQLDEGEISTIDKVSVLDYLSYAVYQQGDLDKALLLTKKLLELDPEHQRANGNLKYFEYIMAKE

[2] = target: the molecule itself; experiment: crystal structure; PSB‐I^144–244 crystallized without peptide, hanging drop, 4°C; 1 M sodium citrate, 0.1 M CHES, pH 9.5; contact between crystallographically related chains

Kd [1]: 84.3 µM | dH [1]: -13.2 kcal/mol
B5: PPG‐PEG‐PPG peptide (peptide)
peptide: PPGPEGPPG
notes: collagen-like model peptide, 9 residues, free amino and free carboxylate ends; also called PxGP‐peptide; source: synthetic peptide; bought: TAG Copenhagen A/S

Kd [1]: 37 µM | dH [1]: -14.9 kcal/mol
B6: PPG‐PRG‐PPG peptide (peptide)
peptide: PPGPRGPPG
notes: as for B5

Second part, the binder before the results:

B1: (Pro)9 peptide (peptide)
peptide: PPPPPPPPP
notes: polyproline peptide of 9 residues, free amino and free carboxylate ends; printed as (Pro)9; also called P9; source: synthetic peptide; bought: TAG Copenhagen A/S
Kd [1]: 80.9 µM | dH [1]: -9.5 kcal/mol

B2: PSB‐I^144–244 construct (longer PSB‐I construct of human C‐P4H‐I α‐subunit) (domain or fragment)
chain: FLTAEDCFELGKVAYTEADYYHTELWMEQALRQLDEGEISTIDKVSVLDYLSYAVYQQGDLDKALLLTKKLLELDPEHQRANGNLKYFEYIMAKEKDVNKSLEHHHHHH
notes: numbers count on: the mature protein (α-I subunit after cleavage of the signal peptide); C-terminal Leu-Glu-(His)6 tag; The C-terminal Leu-Glu-His6 tag is kept and is written as a part, not under tags; also called longer PSB‐I^144–244 variant
binding result [2]: binds

B3: PPG‐PPG‐PPG peptide (peptide)
peptide: PPGPPGPPG
notes: collagen-like model peptide, 9 residues, free amino and free carboxylate ends; also called (PPG)3; source: synthetic peptide; bought: TAG Copenhagen A/S
Kd [1]: 309 µM | dH [1]: -13.6 kcal/mol

B4: PPG‐PAG‐PPG peptide (peptide)
peptide: PPGPAGPPG
notes: as for B5
Kd [1]: 91.3 µM | dH [1]: -12.4 kcal/mol

Source: PMC12433258, “Binding Differences of the Peptide‐Substrate–Binding Domain of Collagen Prolyl 4‐Hydroxylases I and II for Proline‐ and Hydroxyproline‐Rich Peptides” (Proteins, 2025)
